The values that follow come from patent publication US20240279618A1, “RECEPTOR TYROSINE KINASE AGONIST, COMPOSITION FOR CELL CULTURE MEDIUM, AND […] MAINTENANCE COMPOSITION” (SEKISUI CHEMICAL CO., LTD., priority 2021, published 2024).

Data set [1] deals with human bone marrow-derived MSC. The data set is described as follows: MSC: evaluation of fat differentiation induction (Oil Red O). The settings on record: MSC after 3-passage subculture with 20 ng/ml additive, 14 days induction. It is filed as cell-based. On the procedure:
A third passage was performed in a CellBIND(R) 24-well transparent multi-well plate (Corning, C/N: 3337), and then at a time of reaching 80% to 90% confluence, medium exchange was performed in MesenCult Stem Cell Adipogenic Differentiation Medium (PromoCell, C/N: C-28016) which is a medium for differentiation induction. Furthermore, for the cells as a negative control, D-MEM (10% FBS or 20% FBS) was used for the medium exchange. The medium exchange was carried out every 2 to 4 days.
After 14 days from seeding, a 4% paraformaldehyde/phosphate buffer solution was added thereto at 500 μL/well, and the cells were left to stand for 2 hours or longer. After the immobilization, purified water was added thereto at 500 μL/well. An Oil Red stock liquid (Cosmo Bio Co., Ltd., C/N: AK09F) and purified water were mixed at a ratio of 6:4, and the mixture was left to stand at room temperature for 10 to 15 minutes. Thereafter, the filtrate was filtered through a membrane filter having a pore size of 0.5 to 1.0 μm, and the filtrate was used as an Oil Red O liquid. 500 μL of the Oil Red O liquid was added to each well and the mixture was left to stand at room temperature for 15 minutes. […] 100 μL of the eluate was transferred to a 96-well plate and the absorbance at 520 nm was measured. […]

Data set [2] can be described thus: Thermal stability by protein thermal shift assay (SYPRO Orange). Type of data set: physicochemical. The settings on record: 0.5 mg/mL in D-PBS, 25° C. to 95° C., 1° C./min. On the procedure:
The Td is evaluated by a Td value at the time of raising the temperature from 25° C. to 95° C. (temperature rising rate: 1° C./min) under the solution conditions of a protein concentration (0.5 mg/mL) in a D-PBS solution (including 0.2 g of KH2PO4, 1.15 g of Na2HPO4, 0.2 g of KCl, and 8 g of NaCl per liter of the aqueous solution, pH 7.4).
The thermal stability of VHH was measured by a protein thermal shift assay method.
In order to confirm the thermal stability of the VHH monomer Clone #1 and the tandem dimer #1L4, the denaturation temperature (Td) was measured by a protein thermal shift assay method. […] In addition, in order to measure the fluorescence background, a control including no protein was also prepared at the same time, and dispensed into an 8-strip PCR tube (manufactured by Nippon Genetics Co., Ltd.). This tube was set in a real-time PCR measuring device, QuantStudio 3 (manufactured by Thermo Fisher Scientific, Inc.), and a change in fluorescence intensity in a range of 25° C. to 95° C. was measured under the condition of 1° C./min using a fluorescence filter for ROX measurement. After the measurement, Td was calculated using the value obtained by subtracting the background value from the measured value.

For another data set, the target named is T1, FGFR1-Fc (Homo sapiens, UniProt P11362).
T1 construct: each consisting of an extracellular region of FGFR1; purchased R & D Systems 661-FR
T1 sequence (P11362 22-285 isoform P11362-14 limits assumed): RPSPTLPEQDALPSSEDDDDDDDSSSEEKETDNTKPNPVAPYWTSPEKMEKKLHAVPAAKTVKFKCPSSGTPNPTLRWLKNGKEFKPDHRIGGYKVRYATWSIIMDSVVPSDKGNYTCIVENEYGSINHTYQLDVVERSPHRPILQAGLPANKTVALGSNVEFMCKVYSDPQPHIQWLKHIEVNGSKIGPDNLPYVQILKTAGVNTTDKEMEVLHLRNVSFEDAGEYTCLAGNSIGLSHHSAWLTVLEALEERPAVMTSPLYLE
Put plainly: Affinity measurement of VHH (monomer) by surface plasmon resonance (SPR). The settings on record: 1:1 binding model; for ka: 25° C.; for Kd: Biacore T200, 25° C., read-out: equilibrium dissociation constant (KD). On the procedure: Affinity measurement of VHH (monomer) was performed by a surface plasmon resonance (SPR) method.
The binding activity of VHH Clone #1 or VHH Clone #2 immobilized on Series S Sensor Chip CAP (manufactured by Cytiva) with respect to FGFR1-Fc was measured using Biacore (registered trademark) T200 (manufactured by Cytiva). Measurement was performed by CAP Single-cycle Kinetics. The temperature was set to 25° C. As a running buffer, 10 mM HEPES (pH 7.4) (Cytiva) including HBS-EP+(150 mM NaCl, 0.5 mM EDTA, and 0.05% surfactant P20) was used. The measurement order for each run is as follows.
1) Immobilization of biotinylated FGFR1-Fc: The flow rate was set to […], Biotin CAPture Reagent (Cytiva) was added thereto for 300 seconds, then the flow rate was set to […], and an FGFR1-Fc solution diluted with a running buffer was added thereto for 120 seconds to immobilize 140 RU. Here, the “resonance unit (RU)” is a unit used in the above-described Biacore, and a change of an SPR angle of 0.1° is defined as 1,000 RU.
2) Measurement of binding activity: The flow rate was set to 30 μL/mL, and VHH Clone #1 or VHH Clone #2 each diluted to 1.85 nM, 5.56 nM, 16.67 nM, or 50 nM, using a running buffer, was allowed to have an association time set to 120 seconds for binding and a dissociation time set to 600 seconds for interaction.
3) Regeneration of sensor chip surface: The flow rate was set to 10 μL/mL, a solution in which Reaneration stock 1 and Regeneration stock 2 (manufactured by Cytiva) were mixed at the ratio of 3:1 was added thereto for 120 seconds to extract the immobilized VHH. Next, analysis was performed with a 1:1 binding model using Biacore T200 Evaluation (software version 2.0, manufactured by Cytiva), and the binding activity was calculated.

For the molecule “FGF2: fibroblast growth factor (basic), human, recombinant (154aa), positive control; SEQ ID NO: 58 [reference compound]”, the “differentiation into the fat cell line (Oil Red O)” value in data set [1] is reported as “Differentiation was similarly recognized”.

B1: #1-L4-#1: dimer of VHH #1 with linker L4 (GSEGKSSGSGSESKST), SEQ ID NO: 23 (protein)
VHH: QLQLVESGGGSVQAGGSLRLSCAASRSLSRFNVWTWYRQAPVKQRELVASITKSGDTNYAESVKGRFIISRDDDKNTVYLQMNNLKSEDTGIYYCAGSYYSGSYLYPSPGGFSVWGQGTQVTVSSGSEGKSSGSGSESKSTQLQLVESGGGSVQAGGSLRLSCAASRSLSRFNVWTWYRQAPVKQRELVASITKSGDTNYAESVKGRFIISRDDDKNTVYLQMNNLKSEDTGIYYCAGSYYSGSYLYPSPGGFSVWGQGTQVTVSS
modifications: #1-L4-#1
As for B1, the “denaturation temperature (Td)” value in data set [2] amounted to 75.4 °C. Further, the “differentiation into the fat cell line (Oil Red O)” value in data set [1] is on record as “Differentiation was similarly recognized”.

B2: VHH Clone #1: alpaca-derived VHH single-domain antibody (monomer) binding FGFR1, amino acid sequence SEQ ID NO: 17 (protein)
VHH: QLQLVESGGGSVQAGGSLRLSCAASRSLSRFNVWTWYRQAPVKQRELVASITKSGDTNYAESVKGRFIISRDDDKNTVYLQMNNLKSEDTGIYYCAGSYYSGSYLYPSPGGFSVWGQGTQVTVSS
modifications: VHH_Clone_#1
B2: in the data set with FGFR1-Fc, the ka was 8.19e+06 M⁻¹ s⁻¹ and the Kd was 1.74 nM. For the same molecule, the “denaturation temperature (Td)” value in data set [2] turned out to be 74.1 °C.

B3: VHH Clone #2: alpaca-derived VHH single-domain antibody (monomer) binding FGFR1, amino acid sequence SEQ ID NO: 18 (protein)
VHH: QVQLVESGGGLVQAGGSLRLSCAVPGSIFRFNTMGWYRQPPGKQRELVAQMSRGGITKYGDSVKGRFTITRDNAKNTVHLQMNSLKPEDTAVYYCAGSYYSGSYYYPSPQGFSVWGQGTQVTVSP
modifications: VHH_Clone_#2
Take B3: in the data set with FGFR1-Fc, the ka amounted to 1.11e+06 M⁻¹ s⁻¹ and the Kd is 1.02 nM.
